Laboratory results taken from patent US20260159561A1 (MyNeuroCure Oy, priority 2017, published 2026).
Entries after “also recorded” stand apart in the source; their conditions may differ.

How the values were obtained:
[1] = test system: ER stressed superior cervical ganglia (SCG) sympathetic neurons; assay: Survival of tunicamycin ER-stressed SCG neurons microinjected with expression plasmids; format: cell-based, mouse; conditions: expressed from microinjected plasmids; tunicamycin 2 μM; counted after three days
Experimental: Non-neuronal cells were removed by extensive preplating. Almost pure neurons were cultured in polyornithine/laminin (Sigma)-coated 35-mm plastic dishes in the small-size standard microislands in the Neurobasal medium and B27 supplement (Invitrogen/Gibco) in the presence of 30 ng/ml mouse nerve growth factor (NGF) (Promega) for 5-6 days. NGF was deprived by extensive washing and addition of the function-blocking anti-NGF antibodies (Roche). The neurons were pressure-microinjected with special neuronal microinjection equipment (Hellman et al., 2011; Hamner et al., 2001; Lindholm et al., 2002; Sun et al., 2001; Yu et al., 2003)(Sun et al., 2001; Sun et al., 2003). For the survival assay, all neurons on the microislands were counted in the beginning (initial number) and the end (three days) of the experiment and expressed as % of initial.
Microinjection of the sympathetic neurons was performed as described earlier (Yu, L. Y., Jokitalo, E., Sun, Y. F., Mehlen, P., Lindholm, D., Saarma, M., and Arumäe, U. (2003) J. Cell Biol. 163, 987-997). […] Next day tunicamycin (2 μM) was added, and after 3 days the living fluorescent neurons were counted. Living fluorescent (EGFP-expressing or Dextran Texas Red-containing) neurons were “blindly” counted three days later and expressed as percent of initial living fluorescent neurons counted 2-3 hours after microinjection. […]

dopaminergic neurons = assay: Survival of TH-positive dopaminergic neurons in midbrain cultures; format: cell-based; conditions: added to culture medium, 5 days, E13/E13.5 NMRI mouse midbrain floors
Experimental: To study the dopamine neurons (Yu et al., 2008; Yu and Arumae, 2008), the midbrain floors were dissected from the ventral mesencephali of 13.5-d-old NMRI strain mouse embryos. Tissues were incubated with 0.5% trypsin (ICN Biomedical), then mechanically dissociated using a large fire-polished Pasteur pipette. […] Same amount of the neurons were plated to each well at the beginning of the experiments. The cultures without added neurotrophic factors served as the negative control. As the midbrain cultures contain several neuronal types, the cultures were fixed and immunostained with the antibodies to tyrosine hydroxylase (TH) (Millipore), a specific marker for the dopaminergic neurons. Images of each well were scanned by CellInsight™ and immunopositive neurons were counted by CellProfiler and CellProfiler analyst software. Data are expressed as a percentage of GDNF-maintained TH-positive neurons. All experiments were repeated at least three times on the independent cultures. The results were expressed as the mean the SEM and were tested for the significance by either one-way ANOVA and Tukey's post hoc test or by two-tailed Student's t-test. The null hypothesis was rejected at P<0.05.

rat 6-OHDA model of PD = assay: Neurorestoration study in 6-OHDA model of PD, amphetamine-induced rotations; format: in vivo; conditions: intrastriatal injection 2 weeks after 6-OHDA lesioning; 2, 4, 6 and 8 weeks post-lesion
Experimental: In neurorestoration model of PD, rats were lesioned with 6-OHDA as described before (Voutilainen et al., 2009; Voutilainen et al., 2011, Penttinen et al., 2016). Briefly, rats received under isoflurane anesthesia unilateral stereotaxic injections of 3×2 μg 6-OHDA (in 10 degree angle) into the left striatum (coordinates relative to bregma and dura A/P+1.6; L/M −2.8; D/V −6, A/P 0.0: L/M −4.1; D/V −5.5 and A/P −1.2; L/M: −4.5; D/V −5.5). Two weeks later, rats were divided to groups based on their amphetamine-induced rotation results (size of the lesion). […] In the reference experiment after division of rats into groups, osmotic minipumps were inserted subcutaneously and cannula was placed into lesioned striatum. The minipump delivered MANF4 (i.e. MANF peptide CKGC, see WO2013034805), GDNF or vehicle solution into striatum for two weeks after which the minipump and cannula were removed. […] The number of amphetamine-induced (2.5 mg/kg, i.p.) full (360°) ipsi- and contralateral turns were recorded for 120 mins after a 30 min habituation period. The results are expressed as net ipsilateral turns to the lesion side Exclusion criterion was Mean (net rotations)±2×STDEV.

[2] = test system: Huntington's disease rat model (quinolinic acid); assay: Quinolinic acid Huntington's disease rat model, rotarod and grip strength; format: in vivo; conditions: single intrastriatal injection 2 weeks after QA, vs QA+PBS
From the text: Adult Wistar rats received a single, unilateral intrastriatal injection of quinolinic acid (QA) 225 nmol into coordinates: A/P+0.7; L/M+2.8; D/V −6.0. Quinolinic acid is a toxin that induces striatal neuron death by an excitotoxic process. […] Rats were randomized to groups before the treatments started. Rotarod and grip strength tests were done weekly.

[3] = rat, in vivo, sc
Experimental: ^125I-CDNF, ^125I C-CDNF or ^125I C-MANF (all proteins at 106 cpm in 10 μl) were injected subcutaneously to adult male Wistar rats. Animals were perfused with PBS 2 hours later. Radioactivity was analyzed in different brain regions by gamma counter. Data are shown as mean±SEM. The differences between groups were analyzed ANOVA followed by Tukey-Kramers post hoc test.

B1: C-CDNF: Human C-CDNF, SEQ ID NO: 4: C-terminal domain of mature CDNF, amino acid 101 to 161; recombinant, Histidine tag at C-terminus (protein, listed as Homo sapiens)
chain: KYEKTLDLASVDLRKMRVAELKQILHSWGEECRACAEKTDYVNLIQELAPKYAATHPKTEL
living fluorescent neurons, percentage of initial neurons [1]: rescue ER stressed superior cervical ganglia (SCG) sympathetic neurons | TH-positive neurons, percentage of GDNF-maintained neurons (dopaminergic neurons): protects dopaminergic neurons in vitro | cumulative amphetamine-induced rotations (rat 6-OHDA model of PD): significantly reduces the cumulative amount of amphetamine-induced rotations | rotarod latency to fall (motor behavior) ([2]; equimolar to CDNF 10 micrograms): improved motor behavior statistically significantly; also recorded: improved motor performance in both rotarod and grip strength tests | grip strength (left paw) ([2]; 3 and 5 week time points): significantly improved performance at 3 and 5 week time points; also recorded: improved motor performance in both rotarod and grip strength tests | blood-brain-barrier penetration (radioactivity in brain) [3]: capable of penetrating neuronal cell membrane as well as the blood-brain-barrier
